We go through 22 molecules from patent US8258256 (Johns Hopkins, dated 2012).

Ends that are not written are not given here. * marks the point of attachment. Biotin = O=C1N[C@H]2[C@H](CS[C@H]2CCCCC(=O)*)N1

The labels stand for the following.
B1: dimeric WQPDTAHHWATL (SEQ ID NO:1) peptide (as used in the NAALADase assay) (peptide)
peptide: WQPDTAHHWATL
chain: Lys
modifications: not fully specified (C-terminus); printed as (WQPDTAHHWATL)2-K; also: two copies of chain 1, C-termini joined to alpha and epsilon amines of branching Lys, C-terminal label on Lys not given here
B2: non-selected control peptide QMARIPKRLARHK-biotin (peptide)
peptide: QMARIPKRLARHK(Biotin)
notes: also called control consisting of a positively charged 12 amino acid peptide
B3: WQPDTAHHWATLK (Biotin) monomeric peptide (peptide)
peptide: WQPDTAHHWATLK(Biotin)-OH
modifications: N-terminus assumed
SMILES: CC(C)C[C@H](NC(=O)[C@@H](NC(=O)[C@H](C)NC(=O)[C@H](Cc1c[nH]c2ccccc12)NC(=O)[C@H](Cc1c[nH]cn1)NC(=O)[C@H](Cc1c[nH]cn1)NC(=O)[C@H](C)NC(=O)[C@@H](NC(=O)[C@H](CC(=O)O)NC(=O)[C@@H]1CCCN1C(=O)[C@H](CCC(N)=O)NC(=O)[C@@H](N)Cc1c[nH]c2ccccc12)[C@@H](C)O)[C@@H](C)O)C(=O)N[C@@H](CCCCNC(=O)CCCC[C@@H]1SC[C@@H]2NC(=O)N[C@@H]21)C(=O)O
notes: Synthetic, Fmoc chemistry; also called biotinylated monomeric peptide
B4: WQPDTAHHWATL (SEQ ID NO:1) phage (peptide)
peptide: WQPDTAHHWATL
modifications: not fully specified
notes: Whole M13 phage particle displaying the 12-mer; tested as phage, in pfu/ml; not shown: M13 phage coat protein III
B5: selected phage with insert SEQ ID NO 17 (peptide)
peptide: QRSPMMSRIRLP
modifications: not fully specified
notes: Selected in three rounds on His-PSMA; not tested singly; not shown: M13 phage coat protein III
B6: selected phage with insert SEQ ID NO 10 (peptide)
peptide: NGFSHHAPLMRY
modifications: not fully specified
notes: as for B5
B7: selected phage with insert SEQ ID NO 13 (peptide)
peptide: AGFQHHPSFYRF
modifications: not fully specified
notes: as for B5
B8: selected phage with insert SEQ ID NO 36 (peptide)
peptide: TPLPSFTDGHHT
modifications: not fully specified; also: displayed on M13 phage pIII
notes: as for B5
B9: selected phage with insert SEQ ID NO 4 (peptide)
peptide: YTSPHHSTTGHL
modifications: not fully specified; also: displayed on M13 phage pIII
notes: as for B5
B10: selected phage with insert SEQ ID NO 14 (peptide)
peptide: KSLSRHDHIHHH
modifications: not fully specified
notes: as for B5
B11: selected phage with insert SEQ ID NO 29 (peptide)
peptide: GHLIPLRQPSHQ
modifications: not fully specified
notes: as for B5
B12: selected phage with insert SEQ ID NO 9 (peptide)
peptide: SEFIHHWTPPPS
modifications: not fully specified; also: displayed on M13 phage pIII
notes: as for B5
B13: selected phage with insert SEQ ID NO 34 (peptide)
peptide: YRHWPIDYPPPP
modifications: not fully specified; also: displayed on M13 phage pIII
notes: as for B5
B14: selected phage with insert SEQ ID NO 31 (peptide)
peptide: KHMHWHPPALNT
modifications: not fully specified
notes: as for B5
B15: selected phage with insert SEQ ID NO 30 (peptide)
peptide: WTHHHSYPRPLQ
modifications: not fully specified
notes: as for B5
B16: selected phage with insert SEQ ID NO 8 (peptide)
peptide: SLDSMSPQWHAD
modifications: not fully specified; also: displayed on M13 phage pIII
notes: as for B5
B17: selected phage with insert SEQ ID NO 33 (peptide)
peptide: AWPENPSRRPFT
modifications: not fully specified; also: displayed on M13 phage pIII
notes: as for B5
B18: selected phage with insert HNAYWHWPPSMT (SEQ ID NO 2) (peptide)
peptide: HNAYWHWPPSMT
modifications: not fully specified
notes: as for B5
B19: selected phage with insert SEQ ID NO 35 (peptide)
peptide: MIHTNHWWAQDR
modifications: not fully specified; also: displayed on M13 phage pIII
notes: as for B5
B20: selected phage with insert SEQ ID NO 6 (peptide)
peptide: NSFPLMLMHHHP
modifications: not fully specified; also: displayed on M13 phage pIII
notes: as for B5
B21: selected phage with insert SEQ ID NO 32 (peptide)
peptide: HHEWTHHWPPPP
modifications: not fully specified; also: displayed on M13 phage pIII
notes: as for B5

T1 sequence (Q04609 other isoform, or with tags, fused parts or gaps limits assumed): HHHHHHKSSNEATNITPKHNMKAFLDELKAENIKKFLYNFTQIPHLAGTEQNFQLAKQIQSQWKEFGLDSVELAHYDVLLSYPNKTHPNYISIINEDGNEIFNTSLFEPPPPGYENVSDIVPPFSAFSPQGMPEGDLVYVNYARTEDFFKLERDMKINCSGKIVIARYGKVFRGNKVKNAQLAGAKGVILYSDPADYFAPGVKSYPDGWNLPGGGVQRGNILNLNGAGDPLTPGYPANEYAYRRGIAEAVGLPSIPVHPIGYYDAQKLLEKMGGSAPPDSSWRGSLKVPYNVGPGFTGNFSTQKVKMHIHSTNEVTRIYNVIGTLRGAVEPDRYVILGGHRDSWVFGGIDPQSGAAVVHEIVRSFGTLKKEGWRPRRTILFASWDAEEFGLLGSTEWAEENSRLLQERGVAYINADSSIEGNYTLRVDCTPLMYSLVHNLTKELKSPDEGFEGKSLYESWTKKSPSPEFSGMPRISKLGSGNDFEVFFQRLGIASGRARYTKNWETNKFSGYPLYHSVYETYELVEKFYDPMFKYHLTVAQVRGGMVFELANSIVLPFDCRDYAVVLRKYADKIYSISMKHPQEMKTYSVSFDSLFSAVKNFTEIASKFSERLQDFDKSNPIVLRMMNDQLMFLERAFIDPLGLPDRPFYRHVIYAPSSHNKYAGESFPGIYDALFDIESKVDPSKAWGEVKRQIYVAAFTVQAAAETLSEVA

The first assay concerns the target T1, His-PSMA (recombinant extracellular domain of prostate specific membrane antigen with amino-terminal His-6 … (UniProt Q04609 44-750, limits assumed)). Description: cell-based or functional assay.
B1: the “fold better inhibition of PSMA than the monomer” value was around 10 fold and the “inhibition of NAAG hydrolysis (NAALADase activity of PSMA), IC50” value came out at 2.2 µM.
On to WQPDTAHHWATL [monomeric WQPDTAHHWATL (SEQ ID NO:1) peptide (as used in the NAALADase assay)], for which the “inhibition of NAAG hydrolysis (NAALADase activity of PSMA), IC50” value came to 23 µM.

In another assay the target is T1, His-PSMA (recombinant extracellular …). Description: ELISA, biotinylated peptide on immobilized PSMA or BSA. The text has this: (§1) Recombinant PSMA (0.625 µgs) and BSA (25 µgs/ml) were immobilized and indicated concentrations of the biotinylated […] […] Results are the mean binding in 4 replicate wells each ±S.D.
(In general: In an ELISA, binding on a coated surface is turned into a signal by an enzyme label.)
As to B2, the binding result is given as “no binding”.

Another assay has the same target. Description: ELISA, biotinylated peptide on immobilized PSMA against immobilized BSA.
Text: as §1
On to B3, for which the binding result was “binds”.

The target is the same in a further assay. The assay is described as follows: phage ELISA on immobilized His-PSMA against immobilized BSA, phage at 10^10 pfu/ml, anti-M13-HRP.
Consider B4, for which the “fold higher binding to PSMA compared to BSA” value was around 10 fold.

The next assay shares this target. The assay is described as follows: phage display selection in solution on His-PSMA, three rounds, capture with anti-His magnetic beads. The method, then: Phage Library Screening—Peptides from the random M13 12-mer phage library were selected using His-tagged PSMA as the target, which was then captured using magnetically labeled Anti-His Tag Antibody. To remove non-specific phage binding to Anti-His antibody and other components of the magnetic separation system, the library was depleted 2 times with the His-MACS system. First Round of Screening: The final eluate from negative screening was incubated with 0.8 μgs of PSMA for 30 mins at room temperature. 50 uls of His-MACS were added and allowed to bind for 30 mins at room temperature. The incubation mixture was loaded onto a MACS column and washed twice with 1 ml of PBS/0.1% Tween 20 (PBST). Beads containing PSMA bound to phage were collected and amplified using PhD Kit protocol (NEB, Auburn, Mass.). Second Round Screening: Negative screening was repeated as above except with more BSA (0.5%) and longer incubation (1 hr at 4° C.). 10^10 pfu from the first round of screen were then incubated with PSMA in 1% BSA for 6 hrs at 4° C. His-MACS in 3% BSA were incubated for 30 mins and bound phages were collected and amplified as in round one. For third round screening the same method was used except Mouse IgG solution (100 μgs/ml) was added to the blocking solution. Individual phage were selected and sequenced after third round of screening.
To decrease the selection of non-specific low affinity binders, phage screening was performed in solution and incorporated negative screening steps using other selection components (i.e. antibodies, magnetic beads, etc.) to remove many background binders (22). Thus, for this study the phage library was incubated with magnetically labeled Anti-His_6 (SEQ ID NO: 25) antibody […]. After negative selection steps, His-PSMA was incubated with the phage library and phages bound to His-PSMA were captured using magnetically labeled Anti-His_6 (SEQ ID NO: 25) antibody, FIG. 1.
As to B5, the binding result is reported as “binds”.
Still for that read-out and setting: then B6, with “binds”; and B7, with “binds”.
For B8, the binding result is given as “binds”.
As for B9, the binding result is reported as “binds”.
For the molecule B10, the binding result is listed as “binds”.
Take B11: the binding result is “binds”.
In the case of B12, the binding result is recorded as “binds”.
Regarding B13, the binding result is “binds”.
As to B14, the binding result is on record as “binds”.
As to B15, the binding result was “binds”.
Take B16: the binding result is “binds”.
B17: the binding result is “binds”.
B18: the binding result is listed as “binds”.
Take B19: the binding result is listed as “binds”.
In the case of B20, the binding result was “binds”.
Same read-out and setting: the entry for B21 is “binds”.
